How the values were obtained:
[1] = system: CC(=O)N[C@@H](CO)C(=O)N[C@@H](CC(C)C)C(=O)NCC(=O)N[C@@H](CCCCNC(=O)CCC(=O)O)C(=O)Nc1ccc2c(C)cc(=O)oc2c1; assay: (§1) Substrate activity at human N-terminal His-tagged SIRT5 (34 to 302 residues) expressed in Escherichia coli assessed as ratio of Kcat to Km measured after 1 hr in presence of NAD+ and trypsin by Michaelis-Menten kinetic model based fluorescence assay
[2] = system: CC(=O)N[C@@H](CC(C)C)C(=O)NCC(=O)N[C@@H](CO)C(=O)N[C@@H](CCCCNC(=O)CCC(=O)O)C(=O)Nc1ccc2c(C)cc(=O)oc2c1; assay: as §1
[3] = system: Cc1cc(=O)oc2cc(NC(=O)[C@H](CCCCNC(=O)CCC(=O)O)NC(=O)OCc3ccccc3)ccc12; assay: as §1
[4] = system: CC(=O)N[C@@H](Cc1cnc[nH]1)C(=O)N[C@@H](Cc1ccccc1)C(=O)N[C@@H](CO)C(=O)N[C@@H](CCCCNC(=O)CCC(=O)O)C(=O)Nc1ccc2c(C)cc(=O)oc2c1; assay: as §1
[5] = system: CC(=O)N[C@@H](CO)C(=O)N[C@@H](CC(C)C)C(=O)NCC(=O)N[C@@H](CCCCNC(=O)CCC(=O)O)C(=O)Nc1ccc2c(C)cc(=O)oc2c1; assay: (§2) Substrate activity at human N-terminal His-tagged SIRT5 (34 to 302 residues) expressed in Escherichia coli assessed as Km measured after 1 hr in presence of NAD+ and trypsin by Michaelis-Menten kinetic model based fluorescence assay
[6] = system: CC(=O)N[C@@H](CC(C)C)C(=O)NCC(=O)N[C@@H](CO)C(=O)N[C@@H](CCCCNC(=O)CCC(=O)O)C(=O)Nc1ccc2c(C)cc(=O)oc2c1; assay: as §2
[7] = system: Cc1cc(=O)oc2cc(NC(=O)[C@H](CCCCNC(=O)CCC(=O)O)NC(=O)OCc3ccccc3)ccc12; assay: as §2
[8] = system: CC(=O)N[C@@H](Cc1cnc[nH]1)C(=O)N[C@@H](Cc1ccccc1)C(=O)N[C@@H](CO)C(=O)N[C@@H](CCCCNC(=O)CCC(=O)O)C(=O)Nc1ccc2c(C)cc(=O)oc2c1; assay: as §2
[9] = system: CC(=O)N[C@@H](CO)C(=O)N[C@@H](CC(C)C)C(=O)NCC(=O)N[C@@H](CCCCNC(=O)CCC(=O)O)C(=O)Nc1ccc2c(C)cc(=O)oc2c1; assay: (§3) Substrate activity at human N-terminal His-tagged SIRT5 (34 to 302 residues) expressed in Escherichia coli assessed as Kcat measured after 1 hr in presence of NAD+ and trypsin by Michaelis-Menten kinetic model based fluorescence assay
[10] = system: CC(=O)N[C@@H](CC(C)C)C(=O)NCC(=O)N[C@@H](CO)C(=O)N[C@@H](CCCCNC(=O)CCC(=O)O)C(=O)Nc1ccc2c(C)cc(=O)oc2c1; assay: as §3
[11] = system: Cc1cc(=O)oc2cc(NC(=O)[C@H](CCCCNC(=O)CCC(=O)O)NC(=O)OCc3ccccc3)ccc12; assay: as §3
[12] = system: CC(=O)N[C@@H](Cc1cnc[nH]1)C(=O)N[C@@H](Cc1ccccc1)C(=O)N[C@@H](CO)C(=O)N[C@@H](CCCCNC(=O)CCC(=O)O)C(=O)Nc1ccc2c(C)cc(=O)oc2c1; assay: as §3
[13] = system: CC(=O)N[C@@H](CO)C(=O)N[C@@H](CC(C)C)C(=O)NCC(=O)N[C@@H](CCCCNC(=O)CCC(=O)O)C(=O)Nc1ccc2c(C)cc(=O)oc2c1; assay: (§4) Substrate activity at human N-terminal His-tagged SIRT5 (34 to 302 residues) expressed in Escherichia coli assessed as Vmax measured after 1 hr in presence of NAD+ and trypsin by Michaelis-Menten kinetic model based fluorescence assay
[14] = system: CC(=O)N[C@@H](CC(C)C)C(=O)NCC(=O)N[C@@H](CO)C(=O)N[C@@H](CCCCNC(=O)CCC(=O)O)C(=O)Nc1ccc2c(C)cc(=O)oc2c1; assay: as §4
[15] = system: Cc1cc(=O)oc2cc(NC(=O)[C@H](CCCCNC(=O)CCC(=O)O)NC(=O)OCc3ccccc3)ccc12; assay: as §4
[16] = system: CC(=O)N[C@@H](Cc1cnc[nH]1)C(=O)N[C@@H](Cc1ccccc1)C(=O)N[C@@H](CO)C(=O)N[C@@H](CCCCNC(=O)CCC(=O)O)C(=O)Nc1ccc2c(C)cc(=O)oc2c1; assay: as §4

Sequence of NAD-dependent protein deacylase sirtuin-5, mitochondrial (Homo sapiens), Q9NXA8 (Q9NXA8 whole entry): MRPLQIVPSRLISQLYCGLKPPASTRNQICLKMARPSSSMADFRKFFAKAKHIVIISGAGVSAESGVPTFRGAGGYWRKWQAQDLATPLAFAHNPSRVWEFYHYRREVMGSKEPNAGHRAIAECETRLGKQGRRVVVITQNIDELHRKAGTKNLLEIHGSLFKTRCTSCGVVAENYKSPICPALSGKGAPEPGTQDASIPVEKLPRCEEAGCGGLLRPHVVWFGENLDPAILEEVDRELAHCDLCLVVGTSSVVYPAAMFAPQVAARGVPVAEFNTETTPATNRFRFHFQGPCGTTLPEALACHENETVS

With “NAD-dependent protein deacylase sirtuin-5, mitochondrial (Homo sapiens), Q9NXA8” the kcat/Km [1] was 1440 M⁻¹ s⁻¹, the kcat/Km [2] was 817 M⁻¹ s⁻¹ and the kcat/Km [3] was 160 M⁻¹ s⁻¹. It also gave a kcat/Km [4] of 815 M⁻¹ s⁻¹, a Km [5] of 31.6 µM and a Km [6] of 47.6 µM. The Km [7] was 13.3 µM, the Km [8] was 57.5 µM and the kcat [9] was 45.5 10^-3/s. The kcat [10] was 38.8 10^-3/s, the kcat [11] was 2.6 10^-3/s and the kcat [12] was 46.9 10^-3/s. For the same substance, the Vmax [13] was 136 nM/min, the Vmax [14] was 116 nM/min and the Vmax [15] was 21.7 nM/min. It also gave a Vmax [16] of 141 nM/min.

From ChEMBL document CHEMBL4680222, “Sensitive fluorogenic substrates for sirtuin deacylase inhibitor discovery” (Eur J Med Chem, 2020)
